Target: RR_1586 D50G (Clostridioides difficile R20291, UniProt A0A9R0BKD1 1-223, D50G)
Assay: EMSA; 10 mM Mg2+; phosphoramidate; EMSA: 5 pmol DNA in 10 ul (500 nM), 10 mM Tris pH 8, 50 mM NaCl, 10 mM MgCl2, room temperature 10 min; 10% PAGE 0.5x TBE on ice, ethidium bromide
Details: protein: recombinant; tags: His6; chain copies: 2; blunt

B1: CDR20291_1583 site (dsDNA)
DNA 1: AGGAATTAAGGAGCAATTAAATGATG
DNA 2: CATCATTTAATTGCTCCTTAATTCCT
B1: binds.
